Results published in patent US12338268B2, “Compositions and methods for treating protein aggregation-associated diseases” (The Board of Trustees of the Leland Stanford Junior …, priority 2019, dated 2025).
“Also recorded” adds a separate entry of the source.

How the values were obtained:
[1] = biological target: T1, mutant Huntingtin exon 1 (mHttQ51) (Homo sapiens, UniProt P42858, INS38QQQQQQQQQQQQQQQQQQQQQQQQQQQQQQQ); experiment: In vitro filter trap aggregation assay of mutant Huntingtin exon 1; format: biochemical
T1 construct: mutant Huntingtin exon 1 containing a pathogenic stretch of 51 glutamines (mHttQ51); GST (N, cleaved yes); made in house; host or cells: E. coli Rosetta 2(DE3) pLysS
T1 sequence (P42858 with tags, fused parts or gaps with the stated changes limits assumed): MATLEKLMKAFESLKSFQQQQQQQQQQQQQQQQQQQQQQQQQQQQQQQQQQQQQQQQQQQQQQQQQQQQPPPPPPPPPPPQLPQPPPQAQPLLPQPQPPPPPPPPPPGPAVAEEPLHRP
Description: (§1) Mutant Huntingtin and PolyQ51 aggregation reactions were performed at concentration 3 μM of mHttQ51, 0.044 Units/μl acTEV protease (Invitrogen, Carlsbad, CA, USA), and respective concentrations of Ovalbumin (Sigma) or purified NAC chaperone variants. Aggregation was conducted in TEV reaction buffer (Invitrogen) and incubated at 30° C. AtxQ78 was buffer exchanged into TEV reaction buffer using 7K MWCO Zeba Spin Desalting Columns (Thermo Fisher) to initiate aggregation. AtxQ78 aggregation reactions were performed at 30 μM of Ataxin-3 in reaction buffer (20 mM sodium phosphate pH 7.5, 25 mM NaCl, 6 mM MgCl2, 2 mM DTT, 5% (v/v) glycerol) and incubated at 37° C. Samples at varied time-points were then taken and combined in a 1:1 ratio with a 4% (w/v) SDS, 100 mM DTT solution, boiled for 5 min at 95° C., and stored at −20° C. Samples were then filtered through a 0.22 μm cellulose acetate membrane (Whatman) and washed with 0.1% (w/v) SDS. Membrane was probed using an S-tag antibody (Abcam) for mHttQ51 and PolyQ51, and with a His-tag antibody (Abcam) for AtxQ78.

[2] = tested on: HttQ44-BodipyTMR; experiment: Fluorescence quenching assay of HttQ44-BodipyTMR aggregation; format: biochemical; conditions: titrations of chaperones, 24-hour time period
Chain of HttQ44-BodipyTMR (P42858 with tags, fused parts or gaps with the stated changes limits assumed): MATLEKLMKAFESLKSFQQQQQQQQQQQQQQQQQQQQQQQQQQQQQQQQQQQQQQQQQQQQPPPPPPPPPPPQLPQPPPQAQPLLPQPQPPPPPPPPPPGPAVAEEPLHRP
From the text: FIGS. 17A-17B show a fluorescence quenching assay as a reporter for early events in Htt aggregation.
A fluorescence quenching assay was used to monitor aggregation of HttQ44-BodipyTMR with titrations of various chaperones over a 24-hour time period.

[3] = tested on: PolyQ51; experiment: In vitro filter trap aggregation assay of PolyQ51; format: biochemical; conditions: 5× molar excess, SDS-insoluble aggregates
Description: as §1

[4] = biological target: T2, full-length Ataxin-3 (AtxQ78) (Homo sapiens, UniProt P54252, INS305QQQQQQQQQQQQQQQQQQQQQQQQQQQQQQQQQQQQQQQQQQQQQQQQQQQQQQQQQQQQQQQQ); experiment: Filter trap aggregation assay of AtxQ78; format: biochemical; conditions: equimolar (1×) NAC, 37° C.
T2 construct: full-length Ataxin-3 harboring a stretch of 78 glutamines (AtxQ78); made in house
T2 sequence (P54252 with tags, fused parts or gaps with the stated changes): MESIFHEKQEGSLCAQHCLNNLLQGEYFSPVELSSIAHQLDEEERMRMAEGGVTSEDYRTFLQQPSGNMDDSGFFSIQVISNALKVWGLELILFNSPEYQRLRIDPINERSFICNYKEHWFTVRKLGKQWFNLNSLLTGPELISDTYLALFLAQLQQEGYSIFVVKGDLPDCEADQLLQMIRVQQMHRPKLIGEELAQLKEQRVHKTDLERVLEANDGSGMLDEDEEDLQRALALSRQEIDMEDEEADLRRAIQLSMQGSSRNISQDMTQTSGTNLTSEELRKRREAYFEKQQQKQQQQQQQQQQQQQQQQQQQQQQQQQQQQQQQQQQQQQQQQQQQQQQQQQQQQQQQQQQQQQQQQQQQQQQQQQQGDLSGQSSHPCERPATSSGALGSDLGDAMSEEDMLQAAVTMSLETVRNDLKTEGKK
Description: as §1

[5] = biological target: T3, AtxQ78 (Homo sapiens, UniProt P54252, INS305QQQQQQQQQQQQQQQQQQQQQQQQQQQQQQQQQQQQQQQQQQQQQQQQQQQQQQQQQQQQQQQQ); experiment: Chemical crosslinking (BS3) and mass spectrometry of NAC-AtxQ78 complexes; format: binding; conditions: NAC and AtxQ78 1:1, BS3 crosslinker, LC-MS
T3 construct: full-length Ataxin-3 harboring a stretch of 78 glutamines (AtxQ78); made in house
T3 sequence (P54252 with tags, fused parts or gaps with the stated changes): as the sequence (P54252 with tags, fused parts or gaps with the stated changes) above
Description: For crosslinking AtxQ78 was buffer exchanged into 10 mM sodium phosphate (pH 7.2) and added to NAC at a 1:1 ratio (20 μM NAC+20 μM AtxQ78). A 1:1 mixture of BS^3-d^0 and BS^3-d^4 was added to the proteins at 20× and 50× molar excess and the reaction allowed to proceed at room temperature for 1 hour before quenching with the addition of 50 mM Tris-Cl (pH 7.5). Samples were diluted with 2× loading buffer and separated on Tris-tricine gels followed by staining with InstantBlue (Expedeon).
Gel pieces containing the crosslinked complexes were washed with 25 mM ammonium bicarbonate (pH 7.8) for 1 h with shaking. The solution was removed and the pieces destained three times with 25 mM ammonium bicarbonate in 60% acetonitrile. Gel pieces were dehydrated with 100% acetonitrile for 10 min and left to air-dry in a laminar flowhood for 1 h. Rehydration of the gel pieces was achieved by adding 0.1 mg/ml trypsin solution and incubating the samples on ice for 30 min. Excess trypsin was removed and the samples were incubated at 37° C. and 1000 rpm overnight. Peptides were extracted from the gel using 3 washes with 60% acetonitrile/5% formic acid. The extracts were pooled and concentrated using a SpeedVac before being analyzed using a nanoACQUITY LC-system coupled to a Synapt HDMS G2Si mass spectrometer. […]

[6] = biological target: GdmCl-denatured firefly luciferase (Photinus pyralis, UniProt P08659); experiment: Luciferase refolding assay; format: biochemical
Chain of GdmCl-denatured firefly luciferase (P08659 whole entry): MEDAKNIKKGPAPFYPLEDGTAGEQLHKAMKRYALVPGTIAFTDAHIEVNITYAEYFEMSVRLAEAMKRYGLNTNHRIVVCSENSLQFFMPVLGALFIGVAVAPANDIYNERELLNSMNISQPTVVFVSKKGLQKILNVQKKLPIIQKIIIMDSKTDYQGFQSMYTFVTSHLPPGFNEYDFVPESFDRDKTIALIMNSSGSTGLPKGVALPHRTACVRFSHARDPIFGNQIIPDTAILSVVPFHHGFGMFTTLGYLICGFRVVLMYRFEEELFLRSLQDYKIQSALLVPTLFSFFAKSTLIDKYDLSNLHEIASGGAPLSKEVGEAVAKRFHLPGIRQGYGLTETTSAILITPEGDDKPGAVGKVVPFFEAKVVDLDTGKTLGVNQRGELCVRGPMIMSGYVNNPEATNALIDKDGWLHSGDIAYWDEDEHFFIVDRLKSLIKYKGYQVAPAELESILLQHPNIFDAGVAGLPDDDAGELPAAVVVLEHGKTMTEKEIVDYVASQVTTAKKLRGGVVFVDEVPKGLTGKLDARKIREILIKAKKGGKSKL

[7] = biological target: T4, Aβ40 (Homo sapiens, UniProt P05067); experiment: Thioflavin T fluorescence assay of Aβ40 aggregation; format: biochemical; conditions: equimolar NAC variant and Aβ40 (32 μM FIG. 4C; 18 μM FIG. 12C), 37° C., 20 h
T4 construct: Aβ40 peptide was expressed and purified as described previously; made in house; host or cells: E. coli BL21 (DE3)
Description: Lyophilized Aβ40 was resuspended at 320 μM in 20 mM sodium phosphate pH 7.4, 0.2 mM EDTA, 0.01% (w/v) sodium azide and stored on ice. The NAC proteins were diluted to 100 μM in storage buffer (20 mM sodium phosphate pH 7.5, 25 mM NaCl, 6 mM MgCl2, 2 mM β-mercaptoethanol, 5% (v/v) glycerol) and buffer exchanged into 20 mM sodium phosphate pH 7.4, 0.2 mM EDTA, 0.01% (w/v) sodium azide, 1× complete mini protease inhibitor, EDTA free (Roche) by means of ZebaSpin 7 kDa MWCO spin columns (Thermo Scientific). Samples were prepared that contained equimolar concentrations of Aβ40 and NAC variants. Thioflavin T was added to a final concentration of 10 μM. The samples were transferred to a 96 well half-area clear bottom microplate (Corning GmbH, Wiesbaden, Germany), with 95 μL of sample in each well. The fluorescence (excitation: 440 nm, emission: 480 nm) was measured using a BMG Omega plate reader (BMG Labtech) incubating samples at 37° C., quiescently.

[8] = biological target: T4, Aβ40; experiment: Transmission electron microscopy of Aβ40 reaction endpoint; format: biochemical; conditions: reaction endpoint at 20 h, equimolar NAC
Description: After 20 h, samples were taken from the Thioflavin T plate and fixed on carbon coated copper grids, made in house. The samples were negative stained with 2% (w/v) uranyl acetate. The samples were imaged on a JEOL 1400 TEM at the Astbury structural biology laboratory, University of Leeds.

Molecule	HttQ51 aggregation, titration ([1]; ApiCCT1-bNAC from 15 μM to 0.03 μM, Htt 3 μM, filter trap)	polyQ aggregation of huntingtin exon1 ([1]; system with purified components, listed as fused protein)	Htt aggregation over time (fluorescence quenching) [2]	accumulation of PolyQ51 aggregates [3]	mHttQ51 aggregation ([1]; 5× molar excess, 3 μM mHttQ51, filter trap, SDS-insoluble aggregates)	AtxQ78 aggregation [4]	identified intermolecular crosslinks to the C-terminal region of AtxQ78 close to the expanded PolyQ stretch [5]	luciferase refolding ([6]; NAC added to the Hsp70/Hsp40 system (3.2 μM/0.8 μM), no preincubation)	luciferase refolding ([6]; NAC alone, absence of Hsp70/Hsp40, luciferase 0.02 μM, equimolar NAC)	Aβ40 aggregation (ThT fluorescence) [7]	Aβ40 fibril formation (electron microscopy) [8]
ApiCCT1-bNAC: fusion protein comprising the apical domain of CCT1 fused with the bNAC N-terminal sequence at its C-terminus (protein) MGVPGYALNCTVASQAMPKRIAGGNVKIACLDLNLQKARMAMGVQINIDDPEQLEQIRKREAGIVLERVKKIIDAGAQVVLTTKGIDDLCLKEFVEAKIMGVRRCKKEDLRRIARATGATLVSSMSNLEGEETFESSYLGLCDEVVQAKFSDDECILIKGTSKAAAAALEGGSGGSMKETIMNQEKLAKLQAQVRIGGKGTARRKKKVVHRTAT	can suppress HttQ51 aggregation at sub-molar concentrations	works even more potently to inhibit huntingtin exon1 aggregation; also recorded: can suppress aggregation even at sub-molar ratios	better and more stably suppresses Htt aggregation overtime compared to the ApiCCT1 and bNAC N-terminal domain individually								
human NAC: purified recombinant human nascent polypeptide-associated complex (αNAC and βNAC 1:1) (protein) chain 1: MTGSTETRQKEVKEPQVDVSDDSDNEAVEQELTEEQRRVAEAAGLGDHIDKQAKQSRSEKKARKLFSKLGLKQVTGVSRVCIRKSKNILFVINKPDVFKSPGSDTYIIFGEAKIEDLTQHAQMSAIENLKPTREAPQLKTVEEDENEDVEEDSTGIEEKDIELVISQANTTRNKAIRALKEADNDIVNAIMSLTM chain 2: MMDSKAIAERIKKLQAQQEHVRIGGKGTPRRKKKVIHKTAAADDKKLQSNLKKLSVTNIPGIEEVNMIKDDGTVIHFNNPKVQTSVPANTFSVTGSADNKQITEMLPGILNQLGPESLTHLKKLANNVTKLGPDGKGEDEDVPELVGDFDAASKNETKADEQ				strongly delayed the accumulation of PolyQ51 aggregates	effectively suppressed aggregation	delayed the aggregation of AtxQ78	11 out of 18	did not enhance luciferase refolding	had no effect on luciferase refolding	completely suppressed Aβ40 aggregation	completely suppressed Aβ40 aggregation and fibril formation
